1 substance from patent US20240398911A1 can be followed below.

Some results are limits rather than exact numbers.

In assay [1] the target is SARS-CoV2 RBD-8h (Delta) (SARS-CoV-2 (Delta)) (UniProt P0DTC2). The assay can be described thus: BLI, IgG protein immobilized, monomeric RBD-8h analyte.
For assay [2], the target named is SARS-CoV2 RBD-8h (Gamma) (SARS-CoV-2 (Gamma)) (UniProt P0DTC2). The description is as above.

Regarding VIR-7831 (sotrovimab) (antibody), in assay [1], the Kd is < 0.1 nM, the koff is < 1e-07 s⁻¹ and the kon was found to be 100000 M⁻¹ s⁻¹. The same substance gave a kon in assay [2] of 97000 M⁻¹ s⁻¹.
